Test results from publication PMC4224142.

Target: JunD, endogenous in LNCaP cells (human (endogenous in LNCaP)) (UniProt P17535)
Test: proximity ligation

Chain of UniProt P17535 (P17535 whole entry): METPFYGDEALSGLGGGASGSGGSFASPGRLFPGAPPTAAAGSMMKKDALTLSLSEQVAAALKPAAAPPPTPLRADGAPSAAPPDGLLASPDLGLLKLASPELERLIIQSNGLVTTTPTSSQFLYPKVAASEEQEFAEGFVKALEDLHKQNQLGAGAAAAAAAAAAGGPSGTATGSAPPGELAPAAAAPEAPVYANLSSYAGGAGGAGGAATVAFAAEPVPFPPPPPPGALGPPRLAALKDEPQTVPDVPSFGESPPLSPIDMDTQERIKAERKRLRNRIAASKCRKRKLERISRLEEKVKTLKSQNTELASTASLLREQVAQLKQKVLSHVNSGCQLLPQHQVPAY

fold induction of PLA spots per cell by androgen (against cells without R1881): 3 fold
Substance: Androgen receptor (AR), endogenous in LNCaP cells (from UniProt P10275 1-920)
